Assay in all cases: SPR (ProteOn), CD73 variant immobilized; 2:1 fit
Experiment [1] addresses T1, HDX_E2 CD73 chimera (human; chicken, UniProt P21589 27-553).
T1 construct: also called KO_182-187
T1 chain: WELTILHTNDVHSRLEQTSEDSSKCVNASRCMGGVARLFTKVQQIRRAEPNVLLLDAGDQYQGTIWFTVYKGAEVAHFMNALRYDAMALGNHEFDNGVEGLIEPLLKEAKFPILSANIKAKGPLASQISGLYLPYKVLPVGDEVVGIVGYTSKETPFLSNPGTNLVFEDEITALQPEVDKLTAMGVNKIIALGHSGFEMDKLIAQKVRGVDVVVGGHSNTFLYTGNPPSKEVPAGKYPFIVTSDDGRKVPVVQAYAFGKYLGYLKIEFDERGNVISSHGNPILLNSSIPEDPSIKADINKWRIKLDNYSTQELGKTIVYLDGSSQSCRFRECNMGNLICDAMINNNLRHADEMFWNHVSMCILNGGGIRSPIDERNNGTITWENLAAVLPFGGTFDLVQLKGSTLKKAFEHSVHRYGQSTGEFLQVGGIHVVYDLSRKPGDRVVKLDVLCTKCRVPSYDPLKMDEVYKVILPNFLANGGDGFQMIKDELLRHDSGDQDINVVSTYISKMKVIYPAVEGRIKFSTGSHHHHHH
As to the method: (§1) Binding of MEDI9447 to wild-type and mutant CD73 proteins was measured by surface plasmon resonance (SPR) using a ProteOn instrument (BioRad). CD73 crude cell supernatant protein samples were diluted to 3 µg/ml in PBS, 0.005% Tween-20, pH 7.4 (BioRad) and immobilized to ~400 RU on a HTG tris-NTA sensor chip (BioRad) pre-activated with 10 mM NiSO₄, 10 mM MES, pH 6.0 (BioRad). An equivalently diluted crude cell supernatant sample from non-transfected cells was included as a reference channel control. Sensorgrams were recorded by flowing two-fold dilutions of MEDI9447 prepared in PBS, 0.005% Tween-20, pH 7.4, ranging from 5 nM to 0.31 nM. […] Antibody binding was measured at a flow rate of 100 µL/min with a 3 min association phase and 20 min dissociation phase. The sensor chip surface was regenerated between each run by an 800 s injection of 300 mM EDTA, pH 8.5 (BioRad) at a flow rate of 30 µL/min. Binding kinetics were analyzed using the ProteOn data analysis software. Double referencing was performed and, unless noted otherwise, a 1:1 Langmuir binding model was utilized to fit the data. Some CD73 variants containing mutations within the amino acid region 171-188 fit poorly to a 1:1 model (i.e., Chi² values >10% of Rmax). Where noted, these variants were fit with a heterogenous antigen (2:1) model. […] Due to the assay format (antigen immobilized) and the dimeric state of CD73, KD values may be exaggerated due to avidity effects. However, it is not anticipated that this impacts ranking of MEDI9447 binding to the different CD73 variants.

In experiment [2] the target is T2, HDX_E1+E2 CD73 chimera (human; chicken, UniProt P21589 27-553).
T2 chain: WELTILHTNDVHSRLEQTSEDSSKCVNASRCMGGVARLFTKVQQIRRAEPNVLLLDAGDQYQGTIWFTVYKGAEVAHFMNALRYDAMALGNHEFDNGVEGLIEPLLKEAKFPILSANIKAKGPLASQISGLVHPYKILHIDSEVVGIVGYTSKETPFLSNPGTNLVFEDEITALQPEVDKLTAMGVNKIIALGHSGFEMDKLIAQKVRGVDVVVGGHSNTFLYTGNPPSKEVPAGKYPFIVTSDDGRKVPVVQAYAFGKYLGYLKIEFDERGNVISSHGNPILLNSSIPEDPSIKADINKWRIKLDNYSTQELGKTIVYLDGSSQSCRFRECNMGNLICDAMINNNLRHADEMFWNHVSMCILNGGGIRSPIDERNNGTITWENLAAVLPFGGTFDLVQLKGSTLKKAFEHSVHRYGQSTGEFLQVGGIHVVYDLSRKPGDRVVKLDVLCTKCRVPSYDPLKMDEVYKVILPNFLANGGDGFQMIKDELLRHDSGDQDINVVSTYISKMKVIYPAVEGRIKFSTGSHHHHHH
As to the method:
as §1

The target in experiment [3] is T3, Human CD73 N185G, His-tagged (human, UniProt P21589 27-549).
T3 sequence: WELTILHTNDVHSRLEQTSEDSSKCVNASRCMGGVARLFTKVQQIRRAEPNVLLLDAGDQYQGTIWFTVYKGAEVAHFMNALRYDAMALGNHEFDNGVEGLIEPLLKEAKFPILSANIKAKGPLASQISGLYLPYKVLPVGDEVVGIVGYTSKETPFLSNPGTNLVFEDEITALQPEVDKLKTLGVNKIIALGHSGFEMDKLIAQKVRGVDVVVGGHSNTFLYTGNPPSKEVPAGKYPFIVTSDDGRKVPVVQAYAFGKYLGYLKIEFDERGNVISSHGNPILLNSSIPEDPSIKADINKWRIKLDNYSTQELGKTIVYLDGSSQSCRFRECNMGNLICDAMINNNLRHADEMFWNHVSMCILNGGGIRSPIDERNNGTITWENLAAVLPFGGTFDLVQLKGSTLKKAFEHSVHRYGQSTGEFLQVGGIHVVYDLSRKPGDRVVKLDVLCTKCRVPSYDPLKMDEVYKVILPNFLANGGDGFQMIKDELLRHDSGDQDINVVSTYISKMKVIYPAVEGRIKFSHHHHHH
As to the method:
as §1

B1: MEDI9447 (antibody, human IgG1, lambda, V domains shown)
VH: EVQLLESGGGLVQPGGSLRLSCAASGFTFSSYAYSWVRQAPGKGLEWVSAISGSGGRTYYADSVKGRFTISRDNSKNTLYLQMNSLRAEDTAVYYCARLGYGRVDEWGRGTLVTVSS
VL: QSVLTQPPSASGTPGQRVTISCSGSLSNIGRNPVNWYQQLPGTAPKLLIYLDNLRLSGVPDRFSGSKSGTSASLAISGLQSEDEADYYCATWDDSHPGWTFGGGTKLTVLG
notes: Human IgG1-TM (L234F, L235E, P331S), lambda light chain; also called clone 10.3 antibody; 73combo3
By Kd is commonly meant the equilibrium constant for the complex coming apart. Low readings indicate a tighter complex, high ones a looser complex. A word on the koff: it is the rate constant with which the complex falls apart. For orientation: kon means the rate constant with which the complex forms. As to B1, in experiment [1], the Kd was 2.83 nM, the koff worked out at 0.0162 s⁻¹ and the association rate constant (kon) turned out to be 5.73e+06 M⁻¹ s⁻¹. In experiment [2], this molecule yielded an equilibrium dissociation constant (Kd) of 4.43 nM, an off-rate (koff) of 0.0211 s⁻¹ and a kon of 4.76e+06 M⁻¹ s⁻¹. In addition, in experiment [3], the dissociation rate constant (koff) was 0.000245 s⁻¹ and the on-rate constant (kon) stood at 9.11e+06 M⁻¹ s⁻¹.

These data come from patent US20230340152A1 (published 2023).
